Data taken from article PMC2984483.

Experiments:
Conditions in all cases: EMSA: 0.1 ng 32P probe, 15 ul, 30 min at 25 C (stated for GadE/RcsBD56E), 6% native PAGE; H-NS: 100-200 ng PCR fragment plus pBR322 digest, 15 min room …
[1] = target: T1, H-NS-His6 (Escherichia coli) (UniProt P0ACF8); assay: competitive EMSA
T1 sequence: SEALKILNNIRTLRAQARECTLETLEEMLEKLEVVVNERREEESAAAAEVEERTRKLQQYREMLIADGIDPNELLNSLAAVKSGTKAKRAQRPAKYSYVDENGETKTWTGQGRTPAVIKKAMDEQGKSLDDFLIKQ

[2] = target: T2, Strep-AdiY (Escherichia coli) (UniProt P33234); assay: EMSA
T2 sequence: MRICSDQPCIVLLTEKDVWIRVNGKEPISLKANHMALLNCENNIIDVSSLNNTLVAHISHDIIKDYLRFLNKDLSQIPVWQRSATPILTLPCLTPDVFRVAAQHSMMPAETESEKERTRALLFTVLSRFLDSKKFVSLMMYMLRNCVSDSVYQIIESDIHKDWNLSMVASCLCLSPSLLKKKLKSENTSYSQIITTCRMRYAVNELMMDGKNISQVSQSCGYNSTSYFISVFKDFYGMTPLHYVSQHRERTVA

[3] = target: T3, HdfR-His6 (Escherichia coli) (UniProt P0A8R9); assay: EMSA
T3 sequence: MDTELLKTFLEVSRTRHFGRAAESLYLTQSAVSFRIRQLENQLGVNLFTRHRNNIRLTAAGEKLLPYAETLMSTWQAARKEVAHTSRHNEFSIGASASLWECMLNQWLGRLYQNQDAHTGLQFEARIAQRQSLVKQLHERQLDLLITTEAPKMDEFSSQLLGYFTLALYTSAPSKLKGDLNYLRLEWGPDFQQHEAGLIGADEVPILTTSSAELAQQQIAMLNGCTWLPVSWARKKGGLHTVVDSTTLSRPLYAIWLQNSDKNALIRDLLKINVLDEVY

[4] = target: T4, His6-RcsBD56E;GadE-His6 D56E (Escherichia coli;Escherichia coli) (UniProt P0DMC7+P63204); assay: EMSA
T4 sequence 1: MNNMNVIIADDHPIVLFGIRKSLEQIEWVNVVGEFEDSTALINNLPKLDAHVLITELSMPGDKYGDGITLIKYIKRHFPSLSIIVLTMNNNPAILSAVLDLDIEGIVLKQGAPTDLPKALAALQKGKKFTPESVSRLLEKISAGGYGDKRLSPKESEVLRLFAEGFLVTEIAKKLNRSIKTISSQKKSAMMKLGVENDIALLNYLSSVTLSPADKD
T4 sequence 2: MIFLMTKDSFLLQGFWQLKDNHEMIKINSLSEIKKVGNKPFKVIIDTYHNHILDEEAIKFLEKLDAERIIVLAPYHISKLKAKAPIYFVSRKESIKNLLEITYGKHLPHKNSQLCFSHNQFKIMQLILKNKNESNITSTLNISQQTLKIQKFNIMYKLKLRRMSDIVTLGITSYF

Sequence | binding [1] | binding [2] | binding [3] | binding [4]
TGGCCTTAGGCCTTTTGAGTATGGCAACGTTTTCATAAAAATTGCTGCAAACAAAAATGTCATACTTTTTGCGCGGCCCCACCCCGCGCTTTTTTTTGCCTGTTATTTATCCTGTAAAAAAATATGTACATGAGAAATTACTATAAAAATTTGTACTATTAGTAAAAC (double strand) [adiY promoter] | binds |  |  | 
GAATAAAAATAGATTTTATGTACTTTTAAAACAATGCACTATATTATGGGGTGATGGATATTCATGTCACGCCCCAAAATTAACTGAGTTCACCTAAACAGAAAGGATATAAACATCAGACAGGTTTACGTTACTATCAGGCATATCACCTCAGAATCAGATGAAAACTATAAAGAAATATCTATTATGGTTTTAA (double strand) [slp-dctR promoter] | binds | no binding |  | 
TTATATATCCATGTTGGCGATAATCCCTTTGTATGTACTGTGCATCATCGCTATTACAAATCCTAATAATTCATTTCCACACAGGATAAGTAGATGAAGAAAAAAATTGAATC (double strand) [ydeP promoter] | binds |  |  | 
TCGTTATGCAGCGATATTTTTTGCTGTTCATGATAAATATCGAATGAACGACGAATGAGGATCACCGAGCAGACATGAGTCATGATTATCCCTTATATTTCATACTGCGATTATTTCAATTTCAGTATACTAATGAAATGATGCCAGACTGTTTCTTAGCGCAAAAACTGCCAGATTTGGTAGGACCAAAATTTATCCACAAAGTAGTTTTGCATAACAGTTAATTGATAATAAGTAAATGCAGCACGAATATATTTTCGCACAGCGTATAGCTTA (double strand) [gadW promoter] | binds |  |  | 
GGTCGCTCCTTGCCTGAAGTCATCCTTCAATACGTTAAGGGCGAAATCATACCGTGGGGCAATGAGTTATTACGGGCGTTTATTGCGAAGGGAGGGTGACGAAATGCACAGAAAACAAAA (double strand) [aslB promoter] |  | no binding | no binding | binds
ATGCCAAAAACGCGTCTAAGAATGCAGTCGATTTAATAAAAATTTCCTAATTGCAGTATCTGATGCATCTGTAACTCATTGTATTGAAATAAAAATATCTGATTTTGATATTTTCCATCAACATGACATATACAGAAAACCAGGTTATAACCTCAGTGTCG (double strand) [hdeABD promoter] |  | no binding |  | 
ATCCTGCACGCTCCTAATTCTTTGACCGAGCTAGTTATGGCGCGGAGTATTAGTTACGCTTGACAGAGTGTAAAACAAAACATTTAAATCATAACGACAAATAATTTTGCGGAGAGCACTGTGGATACGGAATTGTTAAAAACTTTCCTGGAAGTTAGCCGAACGCGTCACTTTGGTCGAGCGGCTGAATCGCTCTATCTGACCCAGTCAGCAGTGAGCTTTCGAATCAGACAACTGGAAAATCAACTGGGTGTGAACCTT (double strand) [hdfR promoter] | binds |  |  | 
AATGATACTTGTCTGAAAAACAGATTTACGACGATATAAAATAATAATACTTATATGTTCGCTGATTTTAAGCACCGAGACTATCCGGTCTTTTACCAAATAATGAAGAATAATCCCTCCCTGGAAGATAATTGTAAAAAACAACAGCATAAGAATTAATCTTAGGATAAATTTTTATTTATCATGGCCTTTTGAACGCTGAAAAGTAGCGCTCTGCAAAGTAAACCCCGCTATAGTTATGCTATGCATTTGTCTTTAATGATATCTCGTCATTATATTAACAGGATGAAATTATCATTA (double strand) [yhiM promoter] | binds |  |  | binds
TTGCTCATGCAAAGACTAACAATCCATTAAAATAGTAAGTGCTCCGGACAATTTTCCATGGATTATTTTCTGAACATTTTTCTTTGGCAAAGATGATGAATTTTGATGGTAAGGAATATTACTTCTGGTTCTCAGTAAAATCCTTTCGTAATACTATGTAATCAAGAAGTTTATGGCTGGTAAAAATAACGTCTTGCATTCACCAATAATATGTAAATAAACCCATCTATAGATGGTAAAAATAGGTTGTGGCAATTATCATTGCATCATTCCCTTTTCGAATG (double strand) [cadC promoter] | binds |  |  | 
CGCATAATTTCCAGCAATCTTTGTTTATTTGCAATTATTTTTGTTGGGCTTTTTGTAGGTTATTTGTACAGCAAAATGGCGCTTGTACATCTATTTCCCCCAATGCAGGATGATAAATATCACGGGAGAATAGAGAATCATCAATCAGGTAAGAGTCTGGAATTTCACACTGTACCCTTTATACTGCCCT (double strand) [rcsD promoter] | binds |  |  | 
